# According to patent US20260176659A1, “IMPROVED METHOD FOR THE PRODUCTION OF NATURAL VANILLIN” (BASE SE, priority 2022, published 2026):
# Where “and” joins values, the source holds several entries; their conditions need not be identical. Identical values can stand only once.
# B1: CO-03: alkene cleavage oxygenase from Sphingomonadales bacterium, SEQ ID NO: 30 (protein, listed as Sphingomonadales bacterium)
# chain: MSLFNRNHPVFSGGNAPVRIETDAICLETDGALPDELKGSYFRLTADPQFPPRLRPVLVEADGHVGAFHFRDNGQVDYVGKWVRTERFLRERAARRALFGTYRNRFTDEESVLDSDRTTANTAFMFHHHKFFALKEDGLPYQLDPETLDTIGRYDFGGTVSAKSLSAHPKVDSRTGELITHSGQAKGEGTPDIAYYVFDKNGTKTVERWFEAPYSSIVHDIAITQDWVVLPIMPAVVEEERLRAGGATYWWKPELGNHIAVFRRDGTGDVRWFRTKATYAFHVVNSYQDGDRLIIDVMDAEEFPMWWPRPEQVAALRSGEIKRDKFVAQLTRWTIDLAGDSDDIERELLHPWEAEMPRIDDRFAGQPYRYAVYGVDDPSFPLAHGLAELGVNHNSVGWWDHQTRTLTSWYTGPNSSVGEPVFTPRSPDAPEGDGFILAVVQRLAEQRSELVVIDTRDVAAGPIASVHAPHRLKNAIHNLWIDQEQLNEGGEKA
# B2: CO-25: cleavage oxygenase from Novosphingobium aromaticivorans (Uniprot: Q2GA76), SEQ ID NO: 134 (protein)
# chain: MAQFPNTPSFTGFNTPSRIEADIADLAHEGTIPQGLNGAFYRVQPDPQFPPRLDDDIAFNGDGMITRFHIHDGQVDFRQRWAKTDKWKLENAAGKALFGAYRNPLTDDEAVKGEIRSTANTNAFVFGGKLWAMKEDSPALVMDPATMETFGFEKFGGKMTGQTFTAHPKVDPKTGNMVAIGYAASGLCTDDVTYMEVSPEGELVREVWFKVPYYCMMHDFGITEDYLVLHIVPSIGSWERLEQGKPHFGFDTTMPVHLGIIPRRDGVRQEDIRWFTRDNCFASHVLNAWQEGTKIHFVTCEAKNNMFPFFPDVHGAPFNGMEAMSHPTDWVVDMASNGEDFAGIVKLSDTAAEFPRIDDRFTGQKTRHGWFLEMDMKRPVELRGGSAGGLLMNCLFHKDFETGREQHWWCGPVSSLQEPCFVPRAKDAPEGDGWIVQVCNRLEEQRSDLLIFDALDIEKGPVATVNIPIRLRFGLHGNWANADEIGLAEKVLAA
# modifications: Novosphingobium aromaticivorans
# Assays:
# Format in all cases: biochemical
# [1] = Spectrophotometric enzymatic assay: cleaving activity, production of vanillin from coniferyl alcohol at 349 nm
# Method: Stock solution 200× of coniferyl alcohol (90 mg) was prepared in ethanol (5 mL) and stored at −20° C. From this, a new stock solution 20× of coniferyl alcohol (10 mM) was freshly prepared by 1:10 dilution in Glycine-NaOH (50 mM, pH 9.0). A cuvette containing 0.750 mL Glycine-NaOH (50 mM, pH 9.0) and 0.05 mL of the substrate 20× stock was pre-warmed at 25° C. for 1.5 mins. Then, the reaction was initiated by the addition of 0.2 mL of the enzyme sample. The cleaving […] activity was measured spectrophotometrically following the production of vanillin at 349 nm (ε349=26.7 mM^−1cm^−1 experimentally determined). One unit of activity (U) is defined as the amount of enzyme required to produce 1 μmol of vanillin per min. Agilent Cary 60 UV-Vis Spectrophotometer was used for all the measurements.
# Searching for alternative novel alkene cleavage oxygenases (COs) catalysing the formation of vanillin from coniferyl alcohol was performed. A set of 27 sequences and 10 COs from different branches of the phylogenetic tree were selected, named CO-02-11. Two additional enzymes were included, which are located in different clusters of the phylogenetic tree: Lignostillbene dioxygenase from Pseudomonas brassicaceraum (PbLSD, PDB: 5V2D) and aromatic dioxygenase (Ado, CO-01) from Thermothelomyces thermophilus (GenBank ID: XP_003665585). The proteins were recombinantly expressed in E. coli BL21(DE3), following the same protocol developed for IECO. […] Putative COs were screened by spectrophotometric assay, monitoring the formation of 3a upon 2a cleavage. From a set of twelve COs, four positive hits, namely CO-01, CO-03, CO-06 and CO-07 were found. Positive variants were tested in the one pot cascade and compared them with IECO In agreement with the spectrophotometric screening, all four COs converted eugenol 1a to vanillin 3a (Table 8). The first step of the cascade is efficiently performed by EUGO, and the substrate is completely consumed. […] Overall, 70±3% conversion of 1a to vanillin 3a was achieved.
# [2] = CO-03 activity in presence of eugenol
# Method: Stock solutions of coniferyl alcohol (250 mM), eugenol (0-2 M) were prepared in ethanol and stored at −20° C. Unless otherwise specified, the reaction mixtures (0.5 mL) were set up in 1.5 mL glass vials as follows: CO-03 (freeze-dried CFE 5-10 mg/mL) was dissolved in buffer (Glycine-NaOH 50 mM, pH 9.0 or Tris-HCl 50 mM, pH 8.0) with sodium ascorbate (1 mM), FeSO4 (1 mM), bovine liver catalase (Sigma C40, 10 mg/mL) and eugenol (0-100 mM). The final content of ethanol was 5-7% v/v. The reaction was initiated by the addition of coniferyl alcohol (5 mM), and then incubated for 4 hours at 30° C. and 120 rpm (rotary shaker). To improve the oxygenation, the vials were placed horizontally.
# [3] = Bioconversion of eugenol to vanillin: one-pot concurrent cascade EUGO + alkene cleavage oxygenase (5 mM scale); conditions: for Reaction composition after 24 hours 1a (%) / Reaction composition after 24 hours 2a (%) / Reaction composition after 24 hours 3a (%) / Reaction composition after 24 hours 5a (%): Table 8a, CO-XX FD-CFE 1 mg/mL; for Reaction composition after 24 hours 1a (%) / Reaction composition after 24 hours 2a (%) / Reaction composition after 24 hours 3a (%) / Reaction composition after 24 hours 5a (%) / Product distribution after 24 hours 2a (%) / Product distribution after 24 hours 3a (%) / Product distribution after 24 hours 5a (%): EUGO FD-CFE 1 mg/mL, catalase 10 mg/mL, eugenol 5 mM; for Product distribution after 24 hours 2a (%) / Product distribution after 24 hours 3a (%) / Product distribution after 24 hours 5a (%): Table 8b, CO-0X FD-CFE 1 mg/mL; for Conversion of 1a to 3a (%) / Reaction composition at 24 hours (%) 1a / Reaction composition at 24 hours (%) 2a / Reaction composition at 24 hours (%) 3a / Reaction composition at 24 hours (%) 5a: replicates of concurrent cascade with EUGO, 5 mM 1a, SD of four experiments; for Conversion of 1a to 3a (%): 24 h; for Intermediate and product distribution at 24 hours 2a [%] / Intermediate and product distribution at 24 hours 3a [%] / Intermediate and product distribution at 24 hours 5a [%] / 2a / 3a / 5a / Conv. [%] ((3a mM)/5*100): EUGO 0.5 mg CFE, CO-25 3 mg CFE, catalase 5 mg; for 2a / 3a / 5a / Conv. [%] ((3a mM)/5*100): 24 hours
# How it was run: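 Cell-free extracts of EUGO (0.5 mg) and cleavage oxygenase (3 mg) were combined with catalase, 1 mM FeSO4 and 1 mM ascorbate in glycine-NaOH pH 9.0 (or Tris-HCl pH 8.0). The cascade ran with 5 mM eugenol (5% ethanol/DMSO cosolvent) at 30° C and 120 rpm overnight. Methanol-quenched samples were analysed by HPLC at 280/340 nm.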
# [4] = Conversion of 50 mM coniferyl alcohol to vanillin by CO-25; conditions: for Intermediate and product distribution at 24 hours 2a [%] / Intermediate and product distribution at 24 hours 3a [%] / Intermediate and product distribution at 24 hours 5a [%] / 2a / 3a / 5a / Conv. [%]: CO-25 3 mg CFE, catalase 4 mg, 0.4 mL, 50 mM coniferyl alcohol 2a; for 2a / 3a / 5a / Conv. [%]: 24 hours
# Method: In each well of a deep-well-plate sealed with a gas permeable tape we mixed CO-25 (3 mg CFE) and catalase (4 mg) with coniferyl alcohol 2a (3.6 mg, 0.02 mL from 1M stock, final conc.: 50 mM) to a final volume of 0.4 mL. After one day incubation shaking at 290 rpm we obtained 40-46% conversion of coniferyl alcohol 2a to vanillin 3a (Table 10).
# [5] = Subsequent screening of alkene cleavage oxygenases: activity with coniferyl alcohol
# Method: Therefore, 50 mL TB-Kan medium in a 250 mL shake flask were inoculated with an overnight preculture of E. coi BL21 (DE3) carrying a pET-28a plasmid encoding CO-25 in the expression cassette. At OD600 ˜0.8-1, the expression was induced with 0.1 mM IPTG and the culture incubated at 25° C. for 20 hours. 0.5 mM FeSO4*7H2O was added together with the inducer. Then, the cells were disrupted by sonication in Glycine-NaOH 50 mM pH 9.0 containing 1 mM FeSO4*7H2O and 1 mM sodium ascorbate. After centrifugation, the cell free extract was lyophilized and stored at −20° C. From 50 mL cell culture we obtained 235 mg of freeze-dried cell free extract.
# [6] = cascade with EUGO, pH 8.0 and pH 9.0
molecule,measurement,setting,value
B1,Specific Activity (mU/mg of FD-CFE),"[1]; freeze-dried cell free extract incl. buffer salts, vanillin from coniferyl alcohol",7-10 mU/mg
same,Screening of putative COs: formation of 3a upon 2a cleavage (hit or inactive),[1]; spectrophotometric assay,positive hits
same,cleaving activity retained,"[2]; 50 mM 1a, increased biocatalyst amount and modified reaction buffer",49%
same,Residual activity,[2]; at 50 mM 1a,≤ 10%
same,Reaction composition after 24 hours 1a (%),[3]; pH 8.0,≤1%
same,Reaction composition after 24 hours 2a (%),[3]; pH 8.0,14%
same,Reaction composition after 24 hours 3a (%),[3]; pH 8.0,78%
same,Reaction composition after 24 hours 5a (%),[3]; pH 8.0,8%
same,Reaction composition after 24 hours 1a (%),[3]; pH 9.0,≤1%
same,Reaction composition after 24 hours 2a (%),[3]; pH 9.0,8%
same,Reaction composition after 24 hours 3a (%),[3]; pH 9.0,81%
same,Reaction composition after 24 hours 5a (%),[3]; pH 9.0,11%
same,Product distribution after 24 hours 2a (%),[3]; pH 8.0,19.6%
same,Product distribution after 24 hours 3a (%),[3]; pH 8.0,72.0%
same,Product distribution after 24 hours 5a (%),[3]; pH 8.0,8.4%
same,Product distribution after 24 hours 2a (%),[3]; pH 9.0,11.9%
same,Product distribution after 24 hours 3a (%),[3]; pH 9.0,74.9%
same,Product distribution after 24 hours 5a (%),[3]; pH 9.0,13.2%
same,amount of 3a in reaction mixture,[3]; [6],78-81%
same,remaining 2 and its oxidation product 5a in the reaction mixture,[3]; [6],~20%
same,Conversion of 1a to 3a (%),[3]; pH 8.0,70 ± 3%
same,Reaction composition at 24 hours (%) 1a,[3]; pH 8.0,1≤ %
same,Reaction composition at 24 hours (%) 2a,[3]; pH 8.0,14 ± 3%
same,Reaction composition at 24 hours (%) 3a,[3]; pH 8.0,80 ± 2%
same,Reaction composition at 24 hours (%) 5a,[3]; pH 8.0,9 ± 1%
same,Conversion of 1a to 3a (%),[3]; pH 9.0,70 ± 3%
same,Reaction composition at 24 hours (%) 1a,[3]; pH 9.0,1≤ %
same,Reaction composition at 24 hours (%) 2a,[3]; pH 9.0,7 ± 2%
same,Reaction composition at 24 hours (%) 3a,[3]; pH 9.0,83 ± 3%
same,Reaction composition at 24 hours (%) 5a,[3]; pH 9.0,10 ± 1%
same,overall conversion of 1a to vanillin 3a in the 2-step cascade,"[3]; with EUGO, 5 mM substrate concentration",70±3% and 70%
B2,Intermediate and product distribution at 24 hours 2a [%],[4]; pH 8,47.7%
same,Intermediate and product distribution at 24 hours 3a [%],[4]; pH 8,51.1%
same,Intermediate and product distribution at 24 hours 5a [%],[4]; pH 8,1.1%
same,2a,[4]; pH 8,21.48 mM
same,3a,[4]; pH 8,23.01 mM
same,5a,[4]; pH 8,0.52 mM
same,Conv. [%],[4]; pH 8,46.0%
same,Intermediate and product distribution at 24 hours 2a [%],[4]; pH 9,52.5%
same,Intermediate and product distribution at 24 hours 3a [%],[4]; pH 9,45.7%
same,Intermediate and product distribution at 24 hours 5a [%],[4]; pH 9,1.9%
same,2a,[4]; pH 9,22.87 mM
same,3a,[4]; pH 9,19.92 mM
same,5a,[4]; pH 9,0.81 mM
same,Conv. [%],[4]; pH 9,39.8%
same,conversion of coniferyl alcohol 2a to vanillin 3a,"[4]; CO-25, 50 mM 2a, one day incubation",40-46%
same,activity with coniferyl alcohol in comparison to NOV1 mutant S283F,[5],significant higher activity
same,Intermediate and product distribution at 24 hours 2a [%],"[3]; 5 mM eugenol, pH 8",16.4% and 17.1%
same,Intermediate and product distribution at 24 hours 3a [%],"[3]; 5 mM eugenol, pH 8",83.1% and 82.4%
same,Intermediate and product distribution at 24 hours 5a [%],"[3]; 5 mM eugenol, pH 8",0.5%
same,2a,"[3]; 5 mM eugenol, pH 8",4.18 mM and 4.39 mM
same,3a,"[3]; 5 mM eugenol, pH 8",4.18 mM and 4.39 mM
same,5a,"[3]; 5 mM eugenol, pH 8",0.03 mM
same,Conv. [%] ((3a mM)/5*100),"[3]; 5 mM eugenol, pH 8",83.5% and 87.7%
same,Intermediate and product distribution at 24 hours 2a [%],"[3]; 5 mM eugenol, pH 9",12.8% and 11.6%
same,Intermediate and product distribution at 24 hours 3a [%],"[3]; 5 mM eugenol, pH 9",86.3% and 87.5%
same,Intermediate and product distribution at 24 hours 5a [%],"[3]; 5 mM eugenol, pH 9",0.9%
same,2a,"[3]; 5 mM eugenol, pH 9",4.31 mM and 4.21 mM
same,3a,"[3]; 5 mM eugenol, pH 9",4.31 mM and 4.21 mM
same,5a,"[3]; 5 mM eugenol, pH 9",0.05 mM and 0.04 mM
same,Conv. [%] ((3a mM)/5*100),"[3]; 5 mM eugenol, pH 9",86.2% and 84.2%
same,conversion to vanillin 3a,"[3]; EUGO and CO-25, 5 mM eugenol, 0.5 mL scale, pH 8 and 9",83-88%
